Test results published in patent US20260109761A1 (IP2IPO INNOVATIONS, published 2026).

What was measured:
[1] = molecular target: T1, cynomolgus monkey ZIP12-ECD-GST (cynomolgus monkey, UniProt Q95KA5 24-207); test: SPR single cycle kinetics, mAb captured on protein A, ZIP12-ECD-GST injected; cynomolgus monkey ZIP12-ECD-GST; Example 8 cross-species SCK (FIG. 12 average)
T1 construct: extracellular domain; also called cyno ZIP12 fusion protein; cynomolgus monkey ZIP12-GST-ECD; not shown: glutathione S-transferase (GST) tag
T1 sequence (Q95KA5 24-207): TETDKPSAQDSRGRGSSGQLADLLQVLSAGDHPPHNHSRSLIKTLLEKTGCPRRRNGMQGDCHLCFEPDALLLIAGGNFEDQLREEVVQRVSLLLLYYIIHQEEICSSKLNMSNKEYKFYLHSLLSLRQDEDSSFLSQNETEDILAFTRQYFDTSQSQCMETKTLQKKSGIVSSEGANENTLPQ
Text: (§1) Surface plasmon resonance (SPR) is a label free biophysical technique that allows the direct measurement of biomolecular interactions. A single cycle kinetics (SCK) SPR direct binding assay was developed to characterise antibody binding to human, cyno, pig and canine ZIP12 fusion proteins. This assay was used to characterise the binding kinetics of the monoclonal antibody, 51B12 W99H_L1 against each of the four proteins (defined by kon, koff, KD). Single Cycle Kinetics (SCK) involves first capturing the mAb onto the protein A sensor surface and then sequentially injecting a series of concentrations of ZIP12-ECD-GST over the surface starting at the lowest concentration and ending with the highest concentration. The final concentration is followed by a dissociation phase where buffer only is passed across the surface followed by regeneration, where the remaining bound huZIP12-ECD-GST is removed from the surface by injection of a 10 mM Glycine pH 1.5 and 50 mM NaOH solution. The SCK is repeated for each monoclonal antibody providing duplicate data and the kinetics of each interaction is evaluated by the Biacore software.

huZIP12-ECD-GST [2] = molecular target: T2, huZIP12-ECD-GST (human, UniProt Q504Y0 24-202); test: SPR single cycle kinetics, mAb captured on protein A, ZIP12-ECD-GST injected; human ZIP12-ECD-GST; Example 8 cross-species SCK (FIG. 12 average)
T2 construct: also called hZIP12-ECD-GST; human ZIP12-ECD-GST; not shown: glutathione S-transferase (GST) tag
T2 sequence (Q504Y0 24-202): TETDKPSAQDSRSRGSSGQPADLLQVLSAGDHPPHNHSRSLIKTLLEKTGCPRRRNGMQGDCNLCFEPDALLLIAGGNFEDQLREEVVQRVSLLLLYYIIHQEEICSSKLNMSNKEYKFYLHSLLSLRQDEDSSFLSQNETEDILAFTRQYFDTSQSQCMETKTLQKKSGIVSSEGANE
Text: as §1

[3] = molecular target: T3, BETA22 32-53 SEQ ID No: 249 (not fully specified); test: peptide-array ELISA on mimics of the human ZIP12 ECD (peroxidase conjugate, ABTS, CCD read-out); antibody concentration of this value not given
T3 construct: beta-turn mimic
T3 peptide: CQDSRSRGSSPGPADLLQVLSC
Description: (§2) The binding of antibody to each of the synthesized peptides was tested in a peptide-based ELISA. The peptide arrays were incubated with primary antibody solution (overnight at 4° C.). After washing, the peptide arrays were incubated with a 1/1000 dilution of an appropriate antibody peroxidase conjugate for one hour at 25° C. After washing, the peroxidase substrate 2,2′-azino-di-3-ethylbenzthiazoline sulfonate (ABTS) and […] of 3 percent H2O2 were added. After one hour, the colour development was measured. The colour development was quantified with a charge coupled device—camera and an image processing system.

[4] = molecular target: T4, HEL19 32-50 SEQ ID No: 242; test: as above
T4 construct: alpha-helical mimic
T4 peptide: CQDSCSRGSSGQPADLLQV
Description: as §2

[5] = molecular target: T5, HEL19 33-51 SEQ ID No: 243; test: as above
T5 construct: alpha-helical mimic
T5 peptide: CDSRCRGSSGQPADLLQVL
Description: as §2

[6] = molecular target: T6, LIN15 34-48 SEQ ID No: 223; test: as above
T6 peptide: SRSRGSSGQPADLLQ
Description: as §2

[7] = molecular target: T7, LIN15 36-50 SEQ ID No: 225; test: as above
T7 peptide: SRGSSGQPADLLQVL
Description: as §2

[8] = molecular target: T8, HEL19 37-55 SEQ ID No: 244; test: as above
T8 construct: alpha-helical mimic
T8 peptide: CRGSCGQPADLLQVLSAGD
Description: as §2

[9] = molecular target: T9, HEL19 31-49 SEQ ID No: 241; test: as above
T9 construct: alpha-helical mimic
T9 peptide: CAQDCRSRGSSGQPADLLQ
Description: as §2

[10] = molecular target: T10, LOOP15 37-51 SEQ ID No: 240; test: as above
T10 construct: constrained mimic
T10 peptide: CRGSSGQPADLLQVC
Description: as §2

[11] = molecular target: T11, LIN15 35-49 SEQ ID No: 224; test: as above
T11 peptide: RSRGSSGQPADLLQV
Description: as §2

huZIP12-ECD-GST [12] = molecular target: T2, huZIP12-ECD-GST; test: SPR single cycle kinetics, mAb captured on protein A, 3.12-800 nM huZIP12-ECD-GST
Description: Single Cycle Kinetics (SCK) involves first capturing the mAb onto the protein A sensor surface and then sequentially injecting a series of concentrations of huZIP12-ECD-GST over the surface starting at the lowest concentration and ending with the highest concentration. The final concentration is followed by a dissociation phase where buffer only is passed across the surface followed by regeneration, where the remaining bound huZIP12-ECD-GST is removed from the surface by injection of a 10 mM Glycine pH 1.5 and 50 mM NaOH solution. The SCK is repeated for each monoclonal antibody providing duplicate data and the kinetics of each interaction is evaluated by the Biacore software.
Referring to FIG. 6, there are shown the kinetic parameters obtained for all antibody variants when screened with the 3.12 nM to 800 nM huZIP12-ECD-GST. […] Affinity.

huZIP12-ECD-GST [13] = molecular target: T2, huZIP12-ECD-GST; test: SPR single cycle kinetics (Biacore): mAb captured on protein A, ZIP12-ECD-GST injected; average data
[14] = molecular target: T1, cynomolgus monkey ZIP12-ECD-GST; test: as above

B1: H3_W99H_L1 (antibody, V domains shown)
VH: QVQLVESGGGVVQPGRSLRLSCAASGFTFSDYGMHWVRQAPGKGLEWVAYISSGGTTIYYADTVKGRFTISRDNSKNTLYLQMNSLRAEDTAVYYCARHTNLYAMDYWGQGTTVTVSS
VL: DIVLTQSPDSLAVSLGERATINCRASKSVSTQGYSYMHWYQQKPGQPPKFLIYLASNLESGVPDRFSGSGSGTDFTLTISSLQAEDVAVYYCQHSREVPYTFGGGTKVEIKR
notes: Fc null human IgG1 / human kappa
How did the Kd [1] turn out when B1 was run?
The Kd was 6.31 nM.

What about the Kd (huZIP12-ECD-GST [2]) of the same binder?
Its Kd is 4.02 nM.

What about the value [3] of the same binder?
The value was 1350.

What about the value [4] of the same binder?
Its value is 2140.

And the value [5]?
Its value is 2610.

What about the value [6] of the same binder?
The value was 1650.

What about the value [7] of the same binder?
The value was 2650.

And the value [8]?
The value was 2760.

And the value [9]?
The value was 1700.

What about the value [10] of the same binder?
Its value is 1830.

And the value [11]?
Its value is 2460.

And the Kd (huZIP12-ECD-GST [12])?
The Kd was about 0.5 nM.

What about the koff (huZIP12-ECD-GST [13]) of the same binder?
The koff was 0.000261 s⁻¹.

What about the kon (huZIP12-ECD-GST [13]) of the same binder?
Its kon is 64900 M⁻¹ s⁻¹.

What about the koff [14] of the same binder?
Its koff is 0.000218 s⁻¹.

And the kon [14]?
Its kon is 34600 M⁻¹ s⁻¹.
